The text below walks through data of the Human Domainome abundance scans (Beltran et al. 2025).

± gives the uncertainty stated by the source.

The data set is described as follows: abundance fitness (aPCA) (normalised: wild type 0, dead -1); higher = more abundant; growth selection in yeast, the domain comes from the species named. To be noted: Homo sapiens.
In turn, “BAG family molecular chaperone regulator 3 W49G, O95817” came in with an abundance fitness of -0.748 ± 0.15. Then “BAG family molecular chaperone regulator 3 W49L, O95817”, with -0.588 ± 0.081.

With “BAG family molecular chaperone regulator 3 W49M, O95817”, the abundance fitness was -0.21 ± 0.18.

In the case of “BAG family molecular chaperone regulator 3 W49N, O95817”, the abundance fitness is -0.204 ± 0.34. “BAG family molecular chaperone regulator 3 W49P, O95817” yielded an abundance fitness of -0.72 ± 0.25. Then “BAG family molecular chaperone regulator 3 W49Q, O95817”, with -0.764 ± 0.42; and “BAG family molecular chaperone regulator 3 W49R, O95817”, with -0.226 ± 0.1; and “BAG family molecular chaperone regulator 3 W49S, O95817”, with -0.436 ± 0.12. On to “BAG family molecular chaperone regulator 3 W49V, O95817”, for which the abundance fitness is -0.665 ± 0.13. In turn, “SAFB-like transcription modulator D24A, Q9NWH9” had an abundance fitness of -0.217 ± 0.033. The substance “SAFB-like transcription modulator D24C, Q9NWH9” came in with an abundance fitness of -0.226 ± 0.036.

On to “SAFB-like transcription modulator D24E, Q9NWH9”, for which the abundance fitness was -0.003 ± 0.038. As to “SAFB-like transcription modulator D24F, Q9NWH9”, the abundance fitness is -0.466 ± 0.033. Take “SAFB-like transcription modulator D24G, Q9NWH9”: the abundance fitness was -0.282 ± 0.03. As to “SAFB-like transcription modulator D24H, Q9NWH9”, the abundance fitness was -0.145 ± 0.034. The substance “SAFB-like transcription modulator D24I, Q9NWH9” had an abundance fitness of -0.693 ± 0.035.

In turn, “SAFB-like transcription modulator D24K, Q9NWH9” showed an abundance fitness of -0.157 ± 0.034. Turning to “SAFB-like transcription modulator D24M, Q9NWH9”, the abundance fitness is -0.229 ± 0.036. Turning to “SAFB-like transcription modulator D24N, Q9NWH9”, the abundance fitness was -0.098 ± 0.034. The substance “SAFB-like transcription modulator D24P, Q9NWH9” showed an abundance fitness of -0.598 ± 0.033. For the substance “SAFB-like transcription modulator D24Q, Q9NWH9”, the abundance fitness is -0.076 ± 0.037.

“SAFB-like transcription modulator D24R, Q9NWH9” had an abundance fitness of -0.335 ± 0.033. In the case of “SAFB-like transcription modulator D24S, Q9NWH9”, the abundance fitness is -0.149 ± 0.032. “SAFB-like transcription modulator D24T, Q9NWH9” displayed an abundance fitness of -0.157 ± 0.033.

Consider “SAFB-like transcription modulator D24V, Q9NWH9”, for which the abundance fitness is -0.547 ± 0.033.

Substance “SAFB-like transcription modulator D24W, Q9NWH9” returned an abundance fitness of -0.484 ± 0.039. “SAFB-like transcription modulator D24Y, Q9NWH9” had an abundance fitness of -0.433 ± 0.034. Under “SAFB-like transcription modulator D29A, Q9NWH9” stands -0.681 ± 0.25; under “SAFB-like transcription modulator D29C, Q9NWH9”, -0.854 ± 0.22. The substance “SAFB-like transcription modulator D29E, Q9NWH9” came in with an abundance fitness of -0.5 ± 0.13. On to “SAFB-like transcription modulator D29G, Q9NWH9”, for which the abundance fitness is -0.725 ± 0.096.

In the case of “SAFB-like transcription modulator D29I, Q9NWH9”, the abundance fitness was -1.09 ± 0.43.

In turn, “SAFB-like transcription modulator D29K, Q9NWH9” registered an abundance fitness of -1.06 ± 0.33. Then “SAFB-like transcription modulator D29M, Q9NWH9”, with -0.081 ± 0.13. Consider “SAFB-like transcription modulator D29N, Q9NWH9”, for which the abundance fitness is -0.483 ± 0.063.

With “SAFB-like transcription modulator D29P, Q9NWH9”, the abundance fitness is -0.656 ± 0.097. “SAFB-like transcription modulator D29Q, Q9NWH9”: the abundance fitness is -0.084 ± 0.07. “SAFB-like transcription modulator D29S, Q9NWH9” showed an abundance fitness of -0.755 ± 0.19. Regarding “SAFB-like transcription modulator D29T, Q9NWH9”, the abundance fitness is -0.509 ± 0.12. “SAFB-like transcription modulator D29V, Q9NWH9” showed an abundance fitness of -0.717 ± 0.09.

On to “SAFB-like transcription modulator D29W, Q9NWH9”, for which the abundance fitness is -0.882 ± 0.18. Regarding “SAFB-like transcription modulator D29Y, Q9NWH9”, the abundance fitness is -0.677 ± 0.089. Turning to “SAFB-like transcription modulator D40A, Q9NWH9”, the abundance fitness is -0.2 ± 0.046. The substance “SAFB-like transcription modulator D40C, Q9NWH9” gave an abundance fitness of -0.594 ± 0.12. As to “SAFB-like transcription modulator D40E, Q9NWH9”, the abundance fitness was -0.318 ± 0.086.

The substance “SAFB-like transcription modulator D40F, Q9NWH9” displayed an abundance fitness of -1 ± 0.39. In the case of “SAFB-like transcription modulator D40G, Q9NWH9”, the abundance fitness is -0.277 ± 0.069. Substance “SAFB-like transcription modulator D40H, Q9NWH9” gave an abundance fitness of -0.614 ± 0.24. Consider “SAFB-like transcription modulator D40I, Q9NWH9”, for which the abundance fitness was -0.357 ± 0.092.

“SAFB-like transcription modulator D40K, Q9NWH9” gave an abundance fitness of -0.322 ± 0.099. “SAFB-like transcription modulator D40L, Q9NWH9” registered an abundance fitness of -0.35 ± 0.066. Consider “SAFB-like transcription modulator D40M, Q9NWH9”, for which the abundance fitness was -0.377 ± 0.067. “SAFB-like transcription modulator D40Q, Q9NWH9” displayed an abundance fitness of -0.486 ± 0.12. Consider “SAFB-like transcription modulator D40R, Q9NWH9”, for which the abundance fitness is -0.354 ± 0.066.

On to “SAFB-like transcription modulator D40S, Q9NWH9”, for which the abundance fitness was -0.148 ± 0.062. In turn, “SAFB-like transcription modulator D40T, Q9NWH9” registered an abundance fitness of -0.375 ± 0.049.

Regarding “SAFB-like transcription modulator D40V, Q9NWH9”, the abundance fitness was -0.417 ± 0.072. In turn, “SAFB-like transcription modulator D62A, Q9NWH9” showed an abundance fitness of -0.386 ± 0.045. In turn, “SAFB-like transcription modulator D62C, Q9NWH9” displayed an abundance fitness of -0.198 ± 0.045.

Consider “SAFB-like transcription modulator D62E, Q9NWH9”, for which the abundance fitness is -0.397 ± 0.047. Under “SAFB-like transcription modulator D62F, Q9NWH9” stands -0.526 ± 0.073; under “SAFB-like transcription modulator D62G, Q9NWH9”, -0.534 ± 0.054. Consider “SAFB-like transcription modulator D62H, Q9NWH9”, for which the abundance fitness was -0.253 ± 0.077.

In turn, “SAFB-like transcription modulator D62I, Q9NWH9” returned an abundance fitness of -0.339 ± 0.049. Regarding “SAFB-like transcription modulator D62K, Q9NWH9”, the abundance fitness was -0.531 ± 0.062. Then “SAFB-like transcription modulator D62L, Q9NWH9”, with -0.46 ± 0.047. The substance “SAFB-like transcription modulator D62M, Q9NWH9” returned an abundance fitness of -0.69 ± 0.081. Then “SAFB-like transcription modulator D62N, Q9NWH9”, with -0.089 ± 0.05; and “SAFB-like transcription modulator D62P, Q9NWH9”, with -0.474 ± 0.076. Substance “SAFB-like transcription modulator D62Q, Q9NWH9” came in with an abundance fitness of -0.334 ± 0.079. The substance “SAFB-like transcription modulator D62R, Q9NWH9” showed an abundance fitness of -0.331 ± 0.052. “SAFB-like transcription modulator D62S, Q9NWH9” gave an abundance fitness of -0.191 ± 0.046. In turn, “SAFB-like transcription modulator D62T, Q9NWH9” had an abundance fitness of -0.212 ± 0.066. Under “SAFB-like transcription modulator D62V, Q9NWH9” stands -0.397 ± 0.039; under “SAFB-like transcription modulator D62W, Q9NWH9”, -0.66 ± 0.045; under “SAFB-like transcription modulator D62Y, Q9NWH9”, -0.46 ± 0.064. In the case of “SAFB-like transcription modulator D64A, Q9NWH9”, the abundance fitness is -0.12 ± 0.04. As for “SAFB-like transcription modulator D64C, Q9NWH9”, the abundance fitness was -0.166 ± 0.05. For “SAFB-like transcription modulator D64E, Q9NWH9”, the abundance fitness was -0.038 ± 0.034. Then “SAFB-like transcription modulator D64F, Q9NWH9”, with -0.144 ± 0.048; and “SAFB-like transcription modulator D64G, Q9NWH9”, with -0.09 ± 0.041. Substance “SAFB-like transcription modulator D64H, Q9NWH9” displayed an abundance fitness of -0.124 ± 0.058. In turn, “SAFB-like transcription modulator D64I, Q9NWH9” gave an abundance fitness of -0.28 ± 0.072. Regarding “SAFB-like transcription modulator D64K, Q9NWH9”, the abundance fitness is -0.171 ± 0.058. With “SAFB-like transcription modulator D64M, Q9NWH9”, the abundance fitness was -0.016 ± 0.04. Take “SAFB-like transcription modulator D64N, Q9NWH9”: the abundance fitness is 0.035 ± 0.037.

Substance “SAFB-like transcription modulator D64P, Q9NWH9” yielded an abundance fitness of -0.519 ± 0.039.

In the case of “SAFB-like transcription modulator D64R, Q9NWH9”, the abundance fitness is -0.23 ± 0.032. In turn, “SAFB-like transcription modulator D64S, Q9NWH9” displayed an abundance fitness of -0.113 ± 0.035. In the case of “SAFB-like transcription modulator D64T, Q9NWH9”, the abundance fitness is -0.076 ± 0.04.
